Measured values reported in the RNAGym collection of RNA variant scans (doi:10.7554/elife.80360).

B1: HDV Ribozyme (parent)
chain: GGCCGGCAUGGUCCCAGCCUCCUCGCUGGCGCCGGCUGGGCAACAUUCCGAGGGGACCGUCCCCUCGGUAAUGGCGAAUGGGACCCA

Variants of: B1
Experiment: self-cleavage, relative activity (ratio to wild type); higher = more cleavage; co-transcriptional

Variant | self-cleavage
GGCCGGCAUGGUCCCAGCCUCCUCGCUGGCGCCGGCUGGGCAACAUUCCGAGGGGACCGUCCGCUCGGUAACGGCGAAUGGGACCCA [C63G U72C] | 0.344
GGCCGGCAUGGUCCCAGCCUCCUCGCUGGCGCCGGCUGGGCAACAUUCCGAGGGGACCGUCCGCUCGGUAAAGGCGAAUGGGACCCA [C63G U72A] | 0.458
GGCCGGCAUGGUCCCAGCCUCCUCGCUGGCGCCGGCUGGGCAACAUUCCGAGGGGACCGUCCGCUCGGUAAUGGCGAAUCGGACCCA [C63G G80C] | 0.147
GGCCGGCAUGGUCCCAGCCUCCUCGCUGGCGCCGGCUGGGCAACAUUCCGAGGGGACCGUCCGCUCGGUAAUGGCGAAUUGGACCCA [C63G G80U] | 0.199
GGCCGGCAUGGUCCCAGCCUCCUCGCUGGCGCCGGCUGGGCAACAUUCCGAGGGGACCGUCCCAUCGGUUAUGGCGAAUGGGACCCA [C64A A70U] | 0.752
GGCCGGCAUGGUCCCAGCCUCCUCGCUGGCGCCGGCUGGGCAACAUUCCGAGGGGACCGUCCCAUCGGUCAUGGCGAAUGGGACCCA [C64A A70C] | 0.623
GGCCGGCAUGGUCCCAGCCUCCUCGCUGGCGCCGGCUGGGCAACAUUCCGAGGGGACCGUCCCAUCGGUGAUGGCGAAUGGGACCCA [C64A A70G] | 0.749
GGCCGGCAUGGUCCCAGCCUCCUCGCUGGCGCCGGCUGGGCAACAUUCCGAGGGGACCGUCCUCUCGGUACUGGCGAAUGGGACCCA [C63U A71C] | 1.15
GGCCGGCAUGGUCCCAGCCUCCUCGCUGGCGCCGGCUGGGCAACAUUCCGAGGGGACCGUCCUCGCGGUAAUGGCGAAUGGGACCCA [C63U U65G] | 0.96
GGCCGGCAUGGUCCCAGCCUCCUCGCUGGCGCCGGCUGGGCAACAUUCCGAGGGGACCGUCCUCACGGUAAUGGCGAAUGGGACCCA [C63U U65A] | 0.849
GGCCGGCAUGGUCCCAGCCUCCUCGCUGGCGCCGGCUGGGCAACAUUCCGAGGGGACCGUCCUCUCGGUAAUGGCGAAUGAGACCCA [C63U G81A] | 0.521
GGCCGGCAUGGUCCCAGCCUCCUCGCUGGCGCCGGCUGGGCAACAUUCCGAGGGGACCGUCCUCUCGGUAAUGGCGAAUGCGACCCA [C63U G81C] | 0.151
GGCCGGCAUGGUCCCAGCCUCCUCGCUGGCGCCGGCUGGGCAACAUUCCGAGGGGACCGUCCUCUCGUUAAUGGCGAAUGGGACCCA [C63U G68U] | 0.8
GGCCGGCAUGGUCCCAGCCUCCUCGCUGGCGCCGGCUGGGCAACAUUCCGAGGGGACCGUCCUCUCGCUAAUGGCGAAUGGGACCCA [C63U G68C] | 0.941
GGCCGGCAUGGUCCCAGCCUCCUCGCUGGCGCCGGCUGGGCAACAUUCCGAGGGGACCGUCCGCGCGGUAAUGGCGAAUGGGACCCA [C63G U65G] | 0.277
GGCCGGCAUGGUCCCAGCCUCCUCGCUGGCGCCGGCUGGGCAACAUUCCGAGGGGACCGUCCGCCCGGUAAUGGCGAAUGGGACCCA [C63G U65C] | 0.151

Variant | self-cleavage
GGCCGGCAUGGUCCCAGCCUCCUCGCUGGCGCCGGCUGGGCAACAUUCCGAGGGGACCGUCCCAUCGGUAAUGGCGAAUGGGCCCCA [C64A A83C] | 0.332
GGCCGGCAUGGUCCCAGCCUCCUCGCUGGCGCCGGCUGGGCAACAUUCCGAGGGGACCGUCCCAUCGGUAAUGGCGAAUGGGUCCCA [C64A A83U] | 0.511
GGCCGGCAUGGUCCCAGCCUCCUCGCUGGCGCCGGCUGGGCAACAUUCCGAGGGGACCGUCCUCUCGGUAAUGGCAAAUGGGACCCA [C63U G76A] | 0.855
GGCCGGCAUGGUCCCAGCCUCCUCGCUGGCGCCGGCUGGGCAACAUUCCGAGGGGACCGUCCUCUCGGUAAUGGCCAAUGGGACCCA [C63U G76C] | 0.997
GGCCGGCAUGGUCCCAGCCUCCUCGCUGGCGCCGGCUGGGCAACAUUCCGAGGGGACCGUCCUCUCGGUAAUGGCGAAUCGGACCCA [C63U G80C] | 0.218
GGCCGGCAUGGUCCCAGCCUCCUCGCUGGCGCCGGCUGGGCAACAUUCCGAGGGGACCGUCCUCUCGGUAAUGGCGAAUAGGACCCA [C63U G80A] | 0.482
GGCCGGCAUGGUCCCAGCCUCCUCGCUGGCGCCGGCUGGGCAACAUUCCGAGGGGACCGUCCUCUCGGUAAUGGCGAAUUGGACCCA [C63U G80U] | 0.224
GGCCGGCAUGGUCCCAGCCUCCUCGCUGGCGCCGGCUGGGCAACAUUCCGAGGGGACCGUCCUCUCGGUAAUAGCGAAUGGGACCCA [C63U G73A] | 0.831
GGCCGGCAUGGUCCCAGCCUCCUCGCUGGCGCCGGCUGGGCAACAUUCCGAGGGGACCGUCCUCUCGGUUAUGGCGAAUGGGACCCA [C63U A70U] | 0.848
GGCCGGCAUGGUCCCAGCCUCCUCGCUGGCGCCGGCUGGGCAACAUUCCGAGGGGACCGUCCUCUCGGUAAUGGCGAAUGGGACCCC [C63U A87C] | 0.894
GGCCGGCAUGGUCCCAGCCUCCUCGCUGGCGCCGGCUGGGCAACAUUCCGAGGGGACCGUCCUCUCGGUAAUGGCGAAUGGGACCCG [C63U A87G] | 0.927
GGCCGGCAUGGUCCCAGCCUCCUCGCUGGCGCCGGCUGGGCAACAUUCCGAGGGGACCGUCCUCUCGGUAAUGGCGAAUGGGACACA [C63U C85A] | 0.958
GGCCGGCAUGGUCCCAGCCUCCUCGCUGGCGCCGGCUGGGCAACAUUCCGAGGGGACCGUCCUCUCGGUAAUGGCGAAUGGGACUCA [C63U C85U] | 1.01
GGCCGGCAUGGUCCCAGCCUCCUCGCUGGCGCCGGCUGGGCAACAUUCCGAGGGGACCGUCCGCUCGGUAAUGGCGAAUGUGACCCA [C63G G81U] | 0.375
GGCCGGCAUGGUCCCAGCCUCCUCGCUGGCGCCGGCUGGGCAACAUUCCGAGGGGACCGUCCGCUCGGUAAUGGCGAAUGAGACCCA [C63G G81A] | 0.453
GGCCGGCAUGGUCCCAGCCUCCUCGCUGGCGCCGGCUGGGCAACAUUCCGAGGGGACCGUCCGCUCGGUAAUGGCGAAUGCGACCCA [C63G G81C] | 0.277
